Measurements taken from the RNAGym collection of RNA variant scans (doi:10.7554/elife.90254).

B1: LINE1-mini (parent)
chain: GGCAGAGCUCAACACAGCGUGGCAAAGUGGCUGUGGCUAGACUGCC

Variants of: B1
Experiment: self-cleavage, relative activity (ratio to wild type); higher = more cleavage; in vitro, sequencing; the parent is a self-cleaving ribozyme

Q: For GGCAGAGCUCAACACAACGUGGCAAACUGGCUGUGGCUAGACUGCC [G17A G27C], which self-cleavage is on record?
A: 0.19

Q: Which self-cleavage does the source give for GGCAGAGCUCAACACAACGUGGCAAAUUGGCUGUGGCUAGACUGCC [G17A G27U] here?
A: 0.31

Q: For GGCAGAGCUCAACACAACGUGGCAAAAUGGCUGUGGCUAGACUGCC [G17A G27A], which self-cleavage is on record?
A: 0.42

Q: With GGCAGAGCUCAACACAACGUGGCAAAGUGGCUGUGGUUAGACUGCC [G17A C37U] as the variant, how does the self-cleavage read?
A: 0.05

Q: With GGCAGAGCUCAACACAACGUGGCAAAGUGGCUGUGGGUAGACUGCC [G17A C37G] as the variant, how does the self-cleavage read?
A: 0.05

Q: Which self-cleavage does the source give for GGCAGAGCUCAACACACCGUGGCAAAGUAGCUGUGGCUAGACUGCC [G17C G29A] here?
A: 0.12

Q: With GGCAGAGCUCAACACACCGUGGCGAAGUGGCUGUGGCUAGACUGCC [G17C A24G] as the variant, how does the self-cleavage read?
A: 0.71

Q: For GGCAGAGCUCAACACACCGUGGCCAAGUGGCUGUGGCUAGACUGCC [G17C A24C], which self-cleavage is on record?
A: 0.19

Q: Which self-cleavage does the source give for GGCAGAGCUCAACACACCGUGGCUAAGUGGCUGUGGCUAGACUGCC [G17C A24U] here?
A: 0.6

Q: For GGCAGAGCUCAACACAACGUGGCAAAGUAGCUGUGGCUAGACUGCC [G17A G29A], which self-cleavage is on record?
A: 0.37

Q: Which self-cleavage does the source give for GGCAGAGCUCAACACAACGUGGCAAAGUCGCUGUGGCUAGACUGCC [G17A G29C] here?
A: 0.68

Q: Which self-cleavage does the source give for GGCAGAGCUCAACACAACGUGGCAAAGUUGCUGUGGCUAGACUGCC [G17A G29U] here?
A: 0.07

Q: For GGCAGAGCUCAACACAACGUGGCAAAGCGGCUGUGGCUAGACUGCC [G17A U28C], which self-cleavage is on record?
A: 0.97

Q: Which self-cleavage does the source give for GGCAGAGCUCAACACAACGUGGCAAAGGGGCUGUGGCUAGACUGCC [G17A U28G] here?
A: 0.1

Q: Which self-cleavage does the source give for GGCAGAGCUCAACACAACGUGGCAAAGAGGCUGUGGCUAGACUGCC [G17A U28A] here?
A: 0.26

Q: With GGCAGAGCUCAACACAACGUGGCAAAGUGGCUGAGGCUAGACUGCC [G17A U34A] as the variant, how does the self-cleavage read?
A: 0.04

Q: Which self-cleavage does the source give for GGCAGAGCUCAACACAACGUGGCAAAGUGGCUGCGGCUAGACUGCC [G17A U34C] here?
A: 0.06

Q: Which self-cleavage does the source give for GGCAGAGCUCAACACAACGUGGCAAAGUGGCUGGGGCUAGACUGCC [G17A U34G] here?
A: 0.02

Q: With GGCAGAGCUCAACACACCGUGGCAAAGUGGCUGUGGCUAGGCUGCC [G17C A41G] as the variant, how does the self-cleavage read?
A: 0.27

Q: With GGCAGAGCUCAACACACCGUGGCAAAGUGGCUGUGGCUAGUCUGCC [G17C A41U] as the variant, how does the self-cleavage read?
A: 0.49

Q: Which self-cleavage does the source give for GGCAGAGCUCAACACACCGUGGCAAAGUGGCUGUGGCUAGCCUGCC [G17C A41C] here?
A: 0.04

Q: With GGCAGAGCUCAACACACCAUGGCAAAGUGGCUGUGGCUAGACUGCC [G17C G19A] as the variant, how does the self-cleavage read?
A: 1.14

Q: Which self-cleavage does the source give for GGCAGAGCUCAACACACCCUGGCAAAGUGGCUGUGGCUAGACUGCC [G17C G19C] here?
A: 1.39

Q: Which self-cleavage does the source give for GGCAGAGCUCAACACACCUUGGCAAAGUGGCUGUGGCUAGACUGCC [G17C G19U] here?
A: 0.24

Q: Which self-cleavage does the source give for GGCAGAGCUCAACACACCGUGGCAACGUGGCUGUGGCUAGACUGCC [G17C A26C] here?
A: 1.18

Q: Which self-cleavage does the source give for GGCAGAGCUCAACACACCGUGGCAAGGUGGCUGUGGCUAGACUGCC [G17C A26G] here?
A: 0.07

Q: Which self-cleavage does the source give for GGCAGAGCUCAACACACCGUGGCAAUGUGGCUGUGGCUAGACUGCC [G17C A26U] here?
A: 1.41

Q: Which self-cleavage does the source give for GGCAGAGCUCAACACACCGUGGCAAAGUGGCUGUGGCUAGAAUGCC [G17C C42A] here?
A: 0.05

Q: With GGCAGAGCUCAACACACCGUGGCAAAGUGGCUGUGGCUAGAGUGCC [G17C C42G] as the variant, how does the self-cleavage read?
A: 0.03

Q: Which self-cleavage does the source give for GGCAGAGCUCAACACACCGUGGCAAAGUGGCUGUGGCUAGAUUGCC [G17C C42U] here?
A: 0.1

Q: For GGCAGAGCUCAACACACCGUGGUAAAGUGGCUGUGGCUAGACUGCC [G17C C23U], which self-cleavage is on record?
A: 1.61

Q: With GGCAGAGCUCAACACACCGUGGGAAAGUGGCUGUGGCUAGACUGCC [G17C C23G] as the variant, how does the self-cleavage read?
A: 1.22

Q: For GGCAGAGCUCAACACACCGUGGAAAAGUGGCUGUGGCUAGACUGCC [G17C C23A], which self-cleavage is on record?
A: 1.07

Q: For GGCAGAGCUCAACACACCGUGGCAAAGUGGCUGUGGCUCGACUGCC [G17C A39C], which self-cleavage is on record?
A: 0.11

Q: Which self-cleavage does the source give for GGCAGAGCUCAACACACCGUGGCAAAGUGGCUGUGGCUGGACUGCC [G17C A39G] here?
A: 0.1

Q: For GGCAGAGCUCAACACACCGUGGCAAAGUGGCUGUGGCUUGACUGCC [G17C A39U], which self-cleavage is on record?
A: 0.29

Q: With GGCAGAGCUCAACACACCGUGGCAAAUUGGCUGUGGCUAGACUGCC [G17C G27U] as the variant, how does the self-cleavage read?
A: 1.06

Q: With GGCAGAGCUCAACACACCGUGGCAAACUGGCUGUGGCUAGACUGCC [G17C G27C] as the variant, how does the self-cleavage read?
A: 0.29

Q: Which self-cleavage does the source give for GGCAGAGCUCAACACACCGUGGCAAAAUGGCUGUGGCUAGACUGCC [G17C G27A] here?
A: 1.06

Q: Which self-cleavage does the source give for GGCAGAGCUCAACACAACGUGGCAAAGUGGCUAUGGCUAGACUGCC [G17A G33A] here?
A: 0.05

Q: With GGCAGAGCUCAACACAACGUGGCAAAGUGGCUUUGGCUAGACUGCC [G17A G33U] as the variant, how does the self-cleavage read?
A: 0.02

Q: For GGCAGAGCUCAACACAACGUGGCAAAGUGGCUCUGGCUAGACUGCC [G17A G33C], which self-cleavage is on record?
A: 0.04

Q: Which self-cleavage does the source give for GGCAGAGCUCAACACAACGUGGCAAAGUGCCUGUGGCUAGACUGCC [G17A G30C] here?
A: 0.83

Q: With GGCAGAGCUCAACACAACGUGGCAAAGUGUCUGUGGCUAGACUGCC [G17A G30U] as the variant, how does the self-cleavage read?
A: 0.2

Q: For GGCAGAGCUCAACACAACGUGGCAAAGUGACUGUGGCUAGACUGCC [G17A G30A], which self-cleavage is on record?
A: 0.57

Q: Which self-cleavage does the source give for GGCAGAGCUCAACACAACGUGGCAAAGUGGCCGUGGCUAGACUGCC [G17A U32C] here?
A: 0.09

Q: Which self-cleavage does the source give for GGCAGAGCUCAACACAACGUGGCAAAGUGGCGGUGGCUAGACUGCC [G17A U32G] here?
A: 0.06

Q: Which self-cleavage does the source give for GGCAGAGCUCAACACAACGUGGCAAAGUGGCAGUGGCUAGACUGCC [G17A U32A] here?
A: 0.06

Q: For GGCAGAGCUCAACACAACGUGGCAAAGUGGCUGUGGCUAGAUUGCC [G17A C42U], which self-cleavage is on record?
A: 0.1

Q: For GGCAGAGCUCAACACAACGUGGCAAAGUGGCUGUGGCUAGAGUGCC [G17A C42G], which self-cleavage is on record?
A: 0.12

Q: Which self-cleavage does the source give for GGCAGAGCUCAACACAACGUGGCAAAGUGGCUGUGGCUAGAAUGCC [G17A C42A] here?
A: 0.07

Q: For GGCAGAGCUCAACACAACGUGGCAAAGUGGCUGUGGCAAGACUGCC [G17A U38A], which self-cleavage is on record?
A: 0.21

Q: Which self-cleavage does the source give for GGCAGAGCUCAACACAACGUGGCAAAGUGGCUGUGGCGAGACUGCC [G17A U38G] here?
A: 0.04

Q: For GGCAGAGCUCAACACAACGUGGCAAAGUGGCUGUGGCCAGACUGCC [G17A U38C], which self-cleavage is on record?
A: 0.12

Q: Which self-cleavage does the source give for GGCAGAGCUCAACACAACGUGGCAAAGUGGCUGUGGCUACACUGCC [G17A G40C] here?
A: 0.09

Q: Which self-cleavage does the source give for GGCAGAGCUCAACACAACGUGGCAAAGUGGCUGUGGCUAAACUGCC [G17A G40A] here?
A: 0.06
